Experimental data published in the supplement of paper PMC9170038.

System: MS2 coat protein
Test: apparent KD of MS2 coat protein; designed switch direction (-1 OFF switch, 1 ON switch): -1; higher = weaker reporter binding
Procedure, shortened: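 Apparent KD, taken as the median over clusters for each design, was obtained by curve-fitting normalised cluster fluorescence. Designed RNA switches had been transcribed on Illumina chips by stalled E. coli RNA polymerase and titrated with SNAP-549-labelled MS2 coat protein, doubling from 0.7 or 1.5 nM to 3 µM.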

[1] = Eterna round: R95, input ligand: FMN 200 uM
[2] = Eterna round: R95, input ligand: microRNA oligo, concentration not stated
[3] = Eterna round: R95, input ligand: none
[4] = input ligand: microRNA oligo, concentration not stated

Row | Sequence | apparent KD of MS2 coat protein [1] [nM] | apparent KD of MS2 coat protein [2] [nM] | apparent KD of MS2 coat protein [3] [nM] | apparent KD of MS2 coat protein (input ligand: FMN 200 uM) [nM] | apparent KD of MS2 coat protein [4] [nM] | apparent KD of MS2 coat protein (input ligand: none) [nM]
1 | GAUUAUGCGAGCUUUAGGGACAUGAGGAUCACCCAUGUUCGUCUUAUUGAUCUAGGUACGCUGACAUACCUAAAUCU [Mod of one of jandersonlee's solutions 2] (puzzle: Sensor v3, turn-off variant 1) | 22.4 | 36.1 | 24.4 |  |  | 
2 | GAUUAUGCGAGCUUUAGGGACAUGAGGAUCACCCAUGUUCGUCUUAUUGAUCUAGGUGCACUGACAUACCUAAAUCU [JMF 89] (puzzle: Sensor v3, turn-off variant 1) | 28.5 | 37.9 | 29.8 |  |  | 
3 | GAUUAUGCGAGCUUUAGGGACAUGAGGAUCACCCAUGUUCGUCUUAUUGGUCUAGAUGCACUGACAUACCUAAAUCU [JMF 79] (puzzle: Sensor v3, turn-off variant 1) | 15.9 | 19.1 | 16.3 |  |  | 
4 | GAUUAUGCGAGCUUUAGGGACAUGAGGAUCACCCAUGUUCGUCUUAUUGGUCUAGGUACGCUAACAUACCUAAAUCU [JMF 4] (puzzle: Sensor v3, turn-off variant 1) | 22.6 | 37.4 | 23.4 |  |  | 
5 | GAUUAUGCGAGCUUUAGGGACAUGAGGAUCACCCAUGUUCGUCUUAUUGGUCUAGGUACGCUGACAUACCUAAAUCU [JMF 101] (puzzle: Sensor v3, turn-off variant 1) | 20.9 | 32.2 | 23.7 |  |  | 
6 | GAUUAUGCGAGCUUUAGGGACAUGAGGAUCACCCAUGUUCGUCUUAUUGGUCUGGGUACGCUAACAUACCUAAAUCU [JMF 5] (puzzle: Sensor v3, turn-off variant 1) | 34.3 | 46.7 | 37.2 |  |  | 
7 | GAUUAUGCGAGCUUUAGGGACAUGAGGAUCACCCAUGUUCGUCUUGUUGAUCUAGGUACACUGACAUACCUAAAUCU [JMF 65] (puzzle: Sensor v3, turn-off variant 1) | 22 | 26.9 | 18.3 |  |  | 
8 | GAUUGACAUGAGGAUCACCCAUGUGAGGAUAUCGGCCGGACCUUGUUAGCUUCCACCGCGAGAAGGCACAUCGG [Exclusion 1 V30] (puzzle: Exclusion 1) |  | 17 |  |  |  | 
9 | GAUUGACAUGAGGAUCACCCAUGUGAGGAUAUCGGCCGGAUCUUGUUAGCUUCCAUCGCGAGAAGGCACAUAGG [Exclusion 1 V33] (puzzle: Exclusion 1) |  | 55.2 |  |  |  | 
10 | GAUUGACAUGAGGAUCACCCAUGUGAGGAUAUCGGCUGGACCGUGUUGGCCUGCCUCUCGAGAAGGCGCAUAGG [Exclusion 1 V53] (puzzle: Exclusion 1) | 49.9 | 35.6 | 40.5 |  |  | 
11 | GAUUGACAUGAGGAUCACCCAUGUGAGGAUAUCGGCUGGACCGUGUUGGCUUCCGUCGCGAGAAGGCGCAUAGG [Exclusion 1 V42] (puzzle: Exclusion 1) | 61 | 43.5 | 46.4 |  |  | 
12 | GAUUGAGAGCAGGAUAUCUUAGAAAUGUAUGAAAGAGAAGGGCUCACAUGAGGAUCACCCAUGUGGUCCUAGAU [JL Dibiri mod 17] (Eterna round: R96, puzzle: Exclusion 6) |  |  |  | 162 | 17.9 | 25.4
13 | GAUUGAGAGCAGGAUAUCUUAGAAAUGUAUGAAAGAGAAGGGCUCACAUGAGGAUCACCCAUGUGGUCCUAGAU [JL Dibiri mod 17] (puzzle: Exclusion 6) | 244 | 22.8 | 27.5 |  |  | 
14 | GCAAGCUUUUUGGUUUUCAACAUGAGGAUCACCCAUGUUCGUCUUAUACCCGGGCCCGGGCGGUGCCCGGGCCCGGG [-40, -68 kcal, A 14%] (Eterna round: R97, puzzle: Sensor, turn-off variant 1) |  |  |  | 18.2 |  | 21.7
15 | GCACGGAAUGUAGGAUAUUAGUGCGAUUAGCACUGAGAAGGACAUGAGGAUCACCCAUGUUCCUCAAUAAUAAACCUUCCGUGC [Eli exng1 - 044] (Eterna round: R96, puzzle: Exclusion NG 1) |  |  |  | 13 | 10.2 | 13.3
16 | GCACGGAGUGUAGGAUAUCUGUGCGAUUAGCUCAGAGAAGGACAUGAGGAUCACCCAUGUGUGUUCCAAUAAUAAAAUCCGUGC [Eli exng1 - 063] (Eterna round: R96, puzzle: Exclusion NG 1) |  |  |  | 1500 | 270 | 329
17 | GCACGGAUUGUAGGAUAUCUGUGCGAUUAGCUCAGAGAAGGACACAUGAGGAUCACCCAUGUUACCUCAAUUAGCCUUCCGUGC [Eli exng1 - 030] (Eterna round: R96, puzzle: Exclusion NG 1) |  |  |  | 21.7 | 14.9 | 20

Row | Sequence | apparent KD of MS2 coat protein [1] [nM] | apparent KD of MS2 coat protein [2] [nM] | apparent KD of MS2 coat protein [3] [nM] | apparent KD of MS2 coat protein (input ligand: FMN 200 uM) [nM] | apparent KD of MS2 coat protein [4] [nM] | apparent KD of MS2 coat protein (input ligand: none) [nM]
18 | GCACGGUUGGUAGGAUAUCCUUGCGAUUAGCAAGGAGAAGGACCACAUGAGGAUCACCCAUGUACCUCAAUUGUCCUUCCGUGC [Eli exng1 - 026] (Eterna round: R96, puzzle: Exclusion NG 1) |  |  |  | 18.5 | 13.9 | 19.3
19 | GCAGAAUGAGUUAGGAUAUGAUGAUUAUUCGGAAAUCAGAAGGAACUUGAGGAUCACCCAAGUAAAGAUAGGGU [JR_BMEx4_Sub063] (Eterna round: R97, puzzle: Brourd's mod of Exclusion 4) |  |  |  | 361 |  | 221
20 | GCAGAGCAAGGAUAUACAUGAGGAUCACCCAUGUAAUCUGAAAGGAUUGUAUGGCUCUGUAGAAGGUGCGAAAA [Ederxein] (Eterna round: R97, puzzle: Exclusion 3) |  |  |  | 41.9 |  | 22.7
21 | GCAGCAAAUUCCAUUAAAACCACAUGAGGAUCACCCAUGUCUCAGGAUAUGGUCUGGAUUACAGGCCAGAAGGGAGAAAGCUGC [Eli exng3 - 055] (Eterna round: R96, puzzle: Exclusion NG 3) |  |  |  | 10.1 | 11.9 | 16.3
22 | GCAGCAACUCUAAUCAAAACCACAUGAGGAUCACCCAUGUCUCAGGAUAUGGUCUGGAUUACAGGCCAGAAGGGAGAAAGCUGC [Eli exng3 - 050] (Eterna round: R96, puzzle: Exclusion NG 3) |  |  |  | 13.3 | 10.6 | 19.4
23 | GCAGCAUAGUCCAAAUAGGACAUACAUGAGGAUCACCCAUGUCAGGAUAUGGUCUGGAUUACAGGCCAGAAGGGACGAAGCUGC [Eli exng3 - 005] (Eterna round: R96, puzzle: Exclusion NG 3) |  |  |  | 18 | 16.4 | 22.6
24 | GCAGCAUAGUUUACUAACUGUUACAUGAGGAUCACCCAUGUCUAGGAUAUGGUCUGGAUUACAGGCCAGAAGGAGACAAGCUGC [Eli exng3 - 034] (Eterna round: R96, puzzle: Exclusion NG 3) |  |  |  | 14.1 | 12.1 | 16.6
25 | GCAGGCGACUAGGCUCGUCUUAUUUUGAGAAGAUUGAAAACAUGAGGAUCACCCAUGUGUGUGGGAGAGUUGGAGUG [JR_SV3TOV2_Sub012] (puzzle: Sensor v3, turn-off variant 2) | 268 | 346 | 475 |  |  | 
26 | GCAGGUUAAGUCAGGAUAUACCUAUGGAUACAUAGGUAGAAGGGACAUGAGGAUCACCCAUGUGCCUCGCCUGC [Fiskers BMX 4 - 58] (puzzle: Brourd's mod of Exclusion 4) |  | 15.4 |  |  |  | 
27 | GCAGGUUAAGUCAGGAUAUACCUAUGGAUACAUAGGUAGAAGGGACAUGAGGAUCACCCAUGUUCCUCACCUGC [Fiskers BMX 4 - 21] (puzzle: Brourd's mod of Exclusion 4) |  | 13.9 |  |  |  | 
28 | GCAGGUUAAGUCAGGAUAUACCUCUGGAAACAGAGGUAGAAGGGACAUGAGGAUCACCCAUGUUUCUCAUCUGC [Mod of Eli 3 - Jieux - Brourd's mod of Exclusion 4] (Eterna round: R97, puzzle: Brourd's mod of Exclusion 4) |  |  |  | 85.6 |  | 19.2
29 | GCAGUAUGAGUUAGGAUAUGAUGAUUUUUUUUAUUUCAGAAGGAACUUGAGGAUCACCCAAGUUAAGAUUUGGU [JR_BMEx4_Sub068] (Eterna round: R97, puzzle: Brourd's mod of Exclusion 4) |  |  |  | 45.6 |  | 24.6
30 | GCAGUGCGAGGAUAUACAUGAGGAUCACCCAUGUGAGAAUAAUAAGUGAGGAAGAAAAGUAGAAGGCGCGUUGG [Mat - Exclusion 3 - Mod of Salish D67] (puzzle: Exclusion 3) | 103 | 41.1 | 46.8 |  |  | 
31 | GCAUAUGAUGUAGGAUAUGCGAGACAUGAGGAUCACCCAUGUGAGGGAAGGAGAAGGAGAAGAGAGUAGAAGGAUAGAGUGUGA [Default title] (Eterna round: R96, puzzle: Exclusion NG 2) |  |  |  | 83.8 | 85.3 | 85.1
32 | GCAUGAUACUAGGAUAUCAGCAUACUUCAAUGUUGAGAAGGAGUAACAUGAGGAUCACCCAUGUAUCCAACAUG [Exclusion 6 - 4:a] (puzzle: Exclusion 6) |  | 38.5 |  |  |  | 
33 | GCAUGUCUUAAGGAUAUGCCUAGGCGUGAGCCGGCAGAAGGUAAGACAUGAGGAUCACCCAUGUUUUCCUAAAA [jl-ex6-4.30 ViennaUCT mod] (Eterna round: R97, puzzle: Exclusion 6) |  |  |  | 280 |  | 51.2
